Values quoted from earlier work as cited in patent US20210100896A1, “METHODS AND COMPOSITIONS FOR STIMULATING THE IMMUNE SYSTEM” (University of Miami, priority 2017, published 2021).

Test system: tumor
Details: tumor bearing mice

B1: Flt3L: cytokine that promotes hematopoietic progenitor commitment to the DC lineage (protein, UniProt P49771 27-235, looked up)
Fms-related tyrosine kinase 3 …: TQDCSFQHSPISSDFAVKIRELSDYLLQDYPVTVASNLQDEELCGGLWRLVLAQRWMERLKTVAGSKMQGLLERVNTEIHFVTKCAFQPPPSCLRFVQTNISRLLQETSEQLVALKPWITRQNFSRCLELQCQPDSSTLPPPWSPRPLEATAPTAPQPPLLLLLLLPVGLLLLAAAWCLHWQRTRRRTPRPGEQVPPVPSPQDLLLVEH
intratumoral accumulation of DC and tumor inhibition: enhanced intratumoral accumulation of DC and tumor inhibition
